We go through ten molecules from patent US20140105889A1 (published 2014).

Where a chain is given by its changes, count along the chain named. Numbers in names are those of the source.

Sequences and labels used below:
T1: FcγRIIb (human, UniProt P31994 43-217, limits assumed)
T1 construct: also called FcγIIB; FcgRIIb
T1 sequence: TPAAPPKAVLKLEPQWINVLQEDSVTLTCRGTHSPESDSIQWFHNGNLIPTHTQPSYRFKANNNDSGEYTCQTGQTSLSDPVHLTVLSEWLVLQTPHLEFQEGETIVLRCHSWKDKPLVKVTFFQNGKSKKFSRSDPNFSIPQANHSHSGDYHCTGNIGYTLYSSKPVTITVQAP

T2: human FcγRIIb (human, UniProt P31994 43-217, limits assumed)
T2 construct: also called FcγIIB; hFcgRIIb
T2 sequence: T1 sequence

T3: human FcγRIIa type R (human, UniProt P12318 36-217)
T3 construct: also called Fcγ RIIaR; FcγRIIa(R)
T3 chain: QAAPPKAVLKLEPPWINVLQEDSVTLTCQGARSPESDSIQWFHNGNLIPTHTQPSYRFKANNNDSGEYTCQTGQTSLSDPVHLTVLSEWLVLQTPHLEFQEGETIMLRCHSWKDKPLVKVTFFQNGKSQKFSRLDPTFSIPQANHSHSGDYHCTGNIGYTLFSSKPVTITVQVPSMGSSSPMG

T4: human FcγRIIb (human, UniProt P31994 43-217)
T4 construct: also called FcγIIB; FcγRIIb extracellular region
T4 sequence: T1 sequence

B1: IL6R-BP151/IL6R-L (antibody, human IgG1)
heavy: QVQLQESGPGLVKPSETLSLTCAVSGHSISHDHAWSWVRQPPGEGLEWIGFISYSGITNYNPSLQGRVTISRDNSKNTLYLQMNSLRAEDTAVYYCARSLARTTAMDYWGEGTLVTVSSASTKGPSVFPLAPSSKSTSGGTAALGCLVKDYFPEPVTVSWNSGALTSGVHTFPAVLQSSGLYSLSSVVTVPSSSLGTQTYICNVNHKPSNTKVDKKVEPKSCDKTHTCPPCPAPDYLGDDSVFLFPPKPKDTLMISRTPEVTCVVVDVSHEDPEVKFNWYVDGVEVHNAKTKPREEQYNSTYRVVSVLTVLHQDWLNGKEYKCKVSNAALPRPIEKTISKAKGQPREPQVYTLPPSRDELTKNQVSLTCLVKGFYPSDIAVEWESNGQPENNYKTTPPVLDSDGSFFLYSKLTVDKSRWQQGNVFSCSVMHEALHNHYTQESLSLSP
light: DIQMTQSPSSLSASVGDRVTITCRASQDISSYLNWYQQKPGKAPKLLIYYTSRLHSGVPSRFSGSGSGTDFTFTISSLQPEDIATYYCQQGNTLPYTFGQGTKVEIK
notes: EU numbering
B2: IL6R-BP150/IL6R-L (antibody, human IgG1)
heavy: B1 heavy with D235E
light: B1 light
notes: EU numbering
B3: IL6R-BP086/IL6R-L (antibody, human IgG1)
heavy: B1 heavy with D235E, Y236L, D239G, R332K
light: B1 light
notes: copies: 2 + 2
B4: IL6R-BP130/IL6R-L (antibody, human IgG1)
heavy: B1 heavy with Y236L, D239G, V325M, A328K, R332K
light: B1 light
notes: copies: 2 + 2
B5: IL6R-BP088/IL6R-L (antibody, human IgG1)
heavy: B1 heavy with D235E, Y236L, R332K
light: B1 light
notes: copies: 2 + 2
B6: IL6R-BP145/IL6R-L (antibody, human IgG1)
heavy: B1 heavy with D235E, A328K, R332A
light: B1 light
notes: copies: 2 + 2
B7: IL6R-G1d/IL6R-L (antibody, human IgG1)
heavy: not shown
light: B1 light
notes: Anti-human IL-6 receptor IgG1 with the G1d constant region (C-terminal Gly and Lys removed); template used for producing IL6R-B3; also called IgG1; copies: 2 + 2
B8: IL6R-PD094/IL6R-L (antibody, human IgG1)
heavy: B1 heavy with D235E, Y236L, D239W, M254Y, A328K, R332A, N436Y, E441K
light: B1 light
notes: PD variant: P238D/G237W introduced into IL6R-F11 (EU numbering); copies: 2 + 2
B9: IL6R-PD097/IL6R-L (antibody, human IgG1)
heavy: B1 heavy with D235E, Y236L, D239G, S241D, M254Y, A328K, R332A, N436Y, E441K
light: B1 light
notes: PD variant: P238D/S239D introduced into IL6R-F11 (EU numbering); copies: 2 + 2
B10: IL6R-PD095/IL6R-L (antibody, human IgG1)
heavy: B1 heavy with D235E, Y236L, D239Y, M254Y, A328K, R332A, N436Y, E441K
light: B1 light
notes: PD variant: P238D/G237Y introduced into IL6R-F11 (EU numbering); copies: 2 + 2

One test concerns the target T1, FcγRIIb. Briefly: ratio of SPR KD values of this variant (FcγRIIaH over FcγRIIb).
Description: (§1) Furthermore, KD(IIaR)/KD(IIb) and KD(IIaH)/KD(IIb) in the table respectively represent the value obtained by dividing the KD value of each variant for FcγRIIaR by the KD value of each variant for FcγRIIb, and the value obtained by dividing the KD value of each variant for FcγRIIaH by the KD value of each variant for FcγRIIb.
Regarding B1, the “KD (IIaH)/KD (IIb)” value is 118.

As to B2, the “KD (IIaH)/KD (IIb)” value came to 109.

In the next test the target is T2, human FcγRIIb. Put plainly: ratio of this variant's SPR KD for FcγRIIaR to its KD for FcγRIIb.
Description: as §1
In the case of B3, the “KD (IIaR)/KD (IIb)” value came to 17.1.

With B4, the “KD (IIaR)/KD (IIb)” value stood at 17.5.

B5: the “KD (IIaR)/KD (IIb)” value is 13.3.

For B6, the “KD (IIaR)/KD (IIb)” value came out at 9.9.

For the molecule B7, the “KD (IIaR)/KD (IIb)” value is 0.4.

Another test has as its target T3, human FcγRIIa type R. Put plainly: SPR (Biacore), antibody captured on chip, FcγR as analyte; binding amount divided by that of IL6R-F652/IL6R-L, times 100. A general note: SPR reads the build-up and loss of mass on a sensor chip optically.
With B8, the “relative binding activity for FcγRIIaR” value is 593 % of the binding amount of IL6R-F652/IL6R-L.

Consider B9, for which the “relative binding activity for FcγRIIaR” value is 844 % of the binding amount of IL6R-F652/IL6R-L.

For the molecule B10, the “relative binding activity for FcγRIIaR” value was 543 % of the binding amount of IL6R-F652/IL6R-L.

The target in a further test is T4, human FcγRIIb. Described as above.
B8: the “relative binding activity for FcγRIIb” value was 122 % of the binding amount of IL6R-F652/IL6R-L.

For B9, the “relative binding activity for FcγRIIb” value was 139 % of the binding amount of IL6R-F652/IL6R-L.

As to B10, the “relative binding activity for FcγRIIb” value was 124 % of the binding amount of IL6R-F652/IL6R-L.

For another test, the target named is T1, FcγRIIb. Briefly: ratio of SPR KD values of this variant (FcγRIIaR over FcγRIIb).
Description: as §1
Regarding B1, the “KD (IIaR)/KD (IIb)” value is 16.9.

B2: the “KD (IIaR)/KD (IIb)” value was 17.7.

A further test has as its target T2, human FcγRIIb. Put plainly: ratio of this variant's SPR KD for FcγRIIaH to its KD for FcγRIIb.
Description: as §1
In the case of B3, the “KD (IIaH)/KD (IIb)” value worked out at 89.9.

B4: the “KD (IIaH)/KD (IIb)” value is 55.5.

B5: the “KD (IIaH)/KD (IIb)” value worked out at 106.

B6: the “KD (IIaH)/KD (IIb)” value worked out at 49.9.

On to B7, for which the “KD (IIaH)/KD (IIb)” value is 0.3.
